Results published in patent US20120231006A1 (Amgen, published 2012).
Where two headings read alike, the source gives them in different places.

Columns and labels:
[1] = biological target: T1, human Orai1 (human, UniProt Q96D31 1-301); experiment: cell-based or functional assay
[2] = biological target: T2, mOrai1-hOrai1 ECL2 (VIV) protein (human/mouse chimera, UniProt Q8BWG9 1-304 (mouse entry)); experiment: FACS, 293EBNA, RFI-POC grade
T2 construct: also called Ch
From the text: (§1) FIG. 16A-D illustrates the results of FACS analysis showing binding to the indicated mOrai1-hOrai1 ECL2 chimeric mutants expressed on the surface of HEK-293-EBNA cells. Transfected cells were stained first with recombinant monoclonal antibodies then counter-stained with a secondary phycoerythrin-labeled goat (“Gt”) anti-human (“Hu”) IgG F(ab′)₂ antibody fragment and visualized using FACS. In FIG. 16B and FIG. 16D, The values of Relative Fluorescence Intensity as Percent of Control (RFI-POC) are calculated from the relative fluorescence intensity geometric mean (Geo Mean). The geometric mean is an average calculated by multiplying a series of numbers and taking the nth root where n is the number of numbers in the series. It is a statistical average of a set of transformed numbers often used to represent a central tendency in a highly variable data set that minimizes the effects of extreme values.
(§2) Table 11A and Table 11B feature a schematic representation of the POC data from FIG. 16B and FIG. 16D, respectively, where the binding results are recorded as (+++) denoting binding POC from 40% to 100%, (++) for POC of 5% to less than 40%, (+) for POC from 1% to less than 5% and (−) as lack of binding with POC less than 1%.

[3] = biological target: T3, mOrai1-hOrai1 ECL2 chimeric protein (human/mouse chimera, UniProt Q8BWG9 1-304 (mouse entry)); experiment: FACS, 293EBNA, RFI-POC grade
T3 construct: mouse Orai1 with human ECL2; also called Ch
From the text: as §1, §2

[4] = biological target: T1, human Orai1; experiment: cell-based or functional assay; remark: listed apart in the source
[5] = biological target: T4, hOrai1-mOrai1 ECL2 (…) protein (human/mouse chimera, UniProt Q96D31 1-301); experiment: FACS, 293EBNA; set-up: concentration or dose not given beside the values
T4 construct: also called Ch
Method: (§3) FACS binding analysis. Transfected 293EBNA cells transiently expressed hOrai1-mOrai1 ECL2 or mOrai1-hOrai1 ECL2 chimera. The transfected cells were harvested at 48 hours post-transfection. Cells transfected with pcDNA3.1 were used as negative controls. Cells were washed once with ice-cold 1×PBS, resuspended in ice-cold FACS buffer (1×D-PBS+2% goat serum), and 2×10⁵ cells in 100 μL were stained per antibody combination. All antibody incubation steps were performed on ice for 1 hour. […] Next, the unlabelled antibody was detected using goat F(ab′)₂ anti-mouse or anti-human IgG-phycoerythrin (IgG-PE), followed by a wash with 200 μL of ice-cold FACS buffer before flow cytometry analysis. Unstained cells and cells stained with detecting antibodies were used as negative controls. The values of relative level of fluorescence were calculated using FCS Express (De Novo Software) and mean values were calculated using log-transformed data (geometric mean). The results of the FACS analysis are shown in FIG. 15A-B, which supports the conclusion that the hOrai1 ECL2 domain is the region of hOrai1 where antibodies of the present invention bind.
(§4) Representative results of FACS analysis of binding to the mutant hOrai1-mOrai1 ECL2 chimera described above by exemplary anti-hOrai1 antibodies of the present invention are shown in FIG. 17A-D, Table 10A and Table 10B below. Table 10A (Campaign 1) and Table 10B (Campaign 2) show the gain in binding ability of exemplary monoclonal antibodies to hOrai 1-mOrai 1 ECL2 chimera mutants as determined by FACS.

[6] = biological target: T5, hOrai1-mOrai1 ECL2 (AANVST) protein (human/mouse chimera, UniProt Q96D31 1-301); experiment: FACS, 293EBNA; set-up: concentration or dose not given beside the values
T5 construct: also called Ch
Method: as §3, §4

[7] = biological target: T6, hOrai1-mOrai1 ECL2 chimeric protein (human/mouse chimera, UniProt Q96D31 1-301); experiment: FACS, 293EBNA; set-up: concentration or dose not given beside the values
T6 construct: human Orai1 with mouse ECL2; also called Ch
Method: as §3, §4

[8] = biological target: T7, hOrai1-mOrai1 ECL2 (PASGAA) protein (human/mouse chimera, UniProt Q96D31 1-301); experiment: FACS, 293EBNA; set-up: concentration or dose not given beside the values
T7 construct: also called Ch
Method: as §3, §4

[9] = biological target: T8, hOrai1-mOrai1 ECL2 (GAA) protein (human/mouse chimera, UniProt Q96D31 1-301); experiment: FACS, 293EBNA; set-up: concentration or dose not given beside the values
T8 construct: also called Ch
Method: as §3, §4

[10] = biological target: T9, hOrai1-mOrai1 ECL2 (VST) protein (human/mouse chimera, UniProt Q96D31 1-301); experiment: FACS, 293EBNA; set-up: concentration or dose not given beside the values
T9 construct: also called Ch
Method: as §3, §4

[11] = biological target: T10, mOrai1-hOrai1 ECL2 (…) protein (human/mouse chimera, UniProt Q8BWG9 1-304 (mouse entry)); experiment: FACS, 293EBNA transfectants [D00028 FIG. 16B]
T10 construct: also called Ch
From the text: as §1, §2

[12] = biological target: T11, mOrai1-hOrai1 ECL2 (AESVIV) protein (human/mouse chimera, UniProt Q8BWG9 1-304 (mouse entry)); experiment: FACS, 293EBNA transfectants [D00028 FIG. 16B]
T11 construct: also called Ch
From the text: as §1, §2

[13] = biological target: T1, human Orai1; experiment: cell-based or functional assay; remark: listed apart in the source

T1 sequence (Q96D31 whole entry): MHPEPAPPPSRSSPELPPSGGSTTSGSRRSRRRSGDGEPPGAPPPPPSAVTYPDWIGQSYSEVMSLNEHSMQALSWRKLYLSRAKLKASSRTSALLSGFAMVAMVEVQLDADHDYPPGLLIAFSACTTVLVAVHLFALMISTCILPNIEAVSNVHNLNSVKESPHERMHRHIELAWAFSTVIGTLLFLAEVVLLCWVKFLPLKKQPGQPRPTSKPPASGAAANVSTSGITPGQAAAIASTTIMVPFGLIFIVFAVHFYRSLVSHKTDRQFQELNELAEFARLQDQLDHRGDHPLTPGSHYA
T6 sequence (Q96D31 other isoform, or with tags, fused parts or gaps mutant): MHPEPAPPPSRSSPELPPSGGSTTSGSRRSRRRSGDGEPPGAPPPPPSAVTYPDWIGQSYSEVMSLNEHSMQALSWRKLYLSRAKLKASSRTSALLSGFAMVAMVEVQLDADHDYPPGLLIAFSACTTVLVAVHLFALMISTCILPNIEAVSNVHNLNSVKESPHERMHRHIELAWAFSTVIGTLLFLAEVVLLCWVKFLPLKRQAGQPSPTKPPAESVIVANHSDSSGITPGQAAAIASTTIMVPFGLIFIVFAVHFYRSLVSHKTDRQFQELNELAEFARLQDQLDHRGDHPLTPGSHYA
T4 sequence (Q96D31 other isoform, or with tags, fused parts or gaps): as the sequence (Q96D31 other isoform, or with tags, fused parts or gaps mutant) above, with A216P, E217A, V219G, I220A, V221A, H224V, D226T counted along it
T9 sequence (Q96D31 other isoform, or with tags, fused parts or gaps): as the sequence (Q96D31 other isoform, or with tags, fused parts or gaps mutant) above, with H224V, D226T counted along it
T5 sequence (Q96D31 other isoform, or with tags, fused parts or gaps): as the sequence (Q96D31 other isoform, or with tags, fused parts or gaps mutant) above, with V221A, H224V, D226T counted along it
T2 sequence (Q8BWG9 other isoform, or with tags, fused parts or gaps): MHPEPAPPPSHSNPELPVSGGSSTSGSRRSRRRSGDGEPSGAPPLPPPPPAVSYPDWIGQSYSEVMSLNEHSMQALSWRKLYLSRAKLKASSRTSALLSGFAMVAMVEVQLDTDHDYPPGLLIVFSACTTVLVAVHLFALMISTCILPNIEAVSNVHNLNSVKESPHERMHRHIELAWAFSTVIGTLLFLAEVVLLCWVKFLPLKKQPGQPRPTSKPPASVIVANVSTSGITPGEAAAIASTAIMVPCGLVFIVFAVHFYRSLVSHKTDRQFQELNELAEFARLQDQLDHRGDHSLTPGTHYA
T8 sequence (Q96D31 other isoform, or with tags, fused parts or gaps): as the sequence (Q96D31 other isoform, or with tags, fused parts or gaps mutant) above, with V219G, I220A, V221A counted along it
T7 sequence (Q96D31 other isoform, or with tags, fused parts or gaps): as the sequence (Q96D31 other isoform, or with tags, fused parts or gaps mutant) above, with A216P, E217A, V219G, I220A, V221A counted along it
T3 sequence (Q8BWG9 other isoform, or with tags, fused parts or gaps mutant): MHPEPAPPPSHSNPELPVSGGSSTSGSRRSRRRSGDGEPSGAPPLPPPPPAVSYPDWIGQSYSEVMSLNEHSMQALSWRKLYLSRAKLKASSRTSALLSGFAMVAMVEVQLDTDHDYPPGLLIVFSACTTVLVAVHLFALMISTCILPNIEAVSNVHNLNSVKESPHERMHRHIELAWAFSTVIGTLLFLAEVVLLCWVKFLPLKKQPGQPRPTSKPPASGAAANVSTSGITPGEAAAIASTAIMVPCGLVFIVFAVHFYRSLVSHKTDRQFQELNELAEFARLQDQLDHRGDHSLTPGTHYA
T10 sequence (Q8BWG9 other isoform, or with tags, fused parts or gaps): as the sequence (Q8BWG9 other isoform, or with tags, fused parts or gaps mutant) above, with P218A, A219E, G221V, A222I, A223V, V226H, T228D counted along it
T11 sequence (Q8BWG9 other isoform, or with tags, fused parts or gaps): as the sequence (Q8BWG9 other isoform, or with tags, fused parts or gaps mutant) above, with P218A, A219E, G221V, A222I, A223V counted along it

Row | Binder | IC50, NFAT-mediated luciferase assay (FIG. 6B) [1] | IC50, NFAT-mediated luciferase assay (FIG. 6C) [1] | POC (percent of control, FACS Geo Mean relative to Ch. 1) [2] | POC (percent of control, FACS Geo Mean relative to Ch. 1) [3] | IC50 IFN-g, whole blood Donor A, recombinant mAb [4] | IC50 IFN-g, whole blood Donor B, recombinant mAb [4] | IC50 IL-2, whole blood Donor A, recombinant mAb [4] | IC50 IL-2, whole blood Donor B, recombinant mAb [4] | percent of control (POC) of FACS Geo Mean [5] | percent of control (POC) of FACS Geo Mean [6] | percent of control (POC) of FACS Geo Mean [7] | percent of control (POC) of FACS Geo Mean [8] | percent of control (POC) of FACS Geo Mean [9] | percent of control (POC) of FACS Geo Mean [10] | binding result [11] | binding result [12] | IC50 IFN-γ, whole blood Donor A, recombinant mAb [13] | IC50 IFN-γ, whole blood Donor B, recombinant mAb [13] | IC50 IL-2, whole blood Donor A, recombinant mAb [13] | IC50 IL-2, whole blood Donor B, recombinant mAb [13] | further results
1 | mAb 2D2.1 (antibody, human IgG2, lambda, V domains shown, fully human IgG2 lambda, Campaign 1; also called mAb 2D.1) VH: QVQLQQWGAGLLKPSETLSLTCAVYGGSFSGYYWSWIRQPPGKGLEWIGEIDHSGRINYNPALKSRLTISVDTSKNQFSLKLSSVTAADTAVYYCARAGSGGYEDWFDPWGQGTLVTVSS VL: QSVLTQPPSVSGAPGQRVTISCTGSSSNIGAGYNVHWYQQFPRTDPKLLIYVYNIRPSGVPDRFSGSRSGTSASLAITGLQTEDEADYYCQSYDSSLSGVVFGGGTKLTVLG | 2.8 nM | 2.7 nM | 40 to 100% | 40 to 100% | 1.18 nM | 1.1 nM | 0.49 nM | 0.21 nM | < 1% | < 1% | < 1% | < 1% | < 1% | < 1% | – | – | – | – | – | – | –
2 | mAb 2B7.1 (antibody, human IgG2, V domains shown, fully human, Campaign 1) VH: QVQLQQWGAGLLKPSETLSLTCAVYGGSFSGYYWSWIRQPPGKGLEWIGEIDHSGSTNYNPALKSRLTISVDTSKNQFSLKLSSVTAADTAVYYCARAGSGGYEDWFDPWGQGTLVTVSS VL: QSVLTQPPSVSGAPGQRVTISCTGSSSNIGTGYNVHWYQQFPRTDPKLLIYVYNIRPSGVPDRFSGSRSGTSASLAITGLQTEDEADYYCQSYDSSLSGVVFGGGTKLTVLG | 4.2 nM | 3.5 nM | 40 to 100% | 40 to 100% | 5.27 nM | 3.93 nM | 2.06 nM | 0.9 nM | < 1% | < 1% | < 1% | < 1% | < 1% | < 1% | binds | binds | – | – | – | – | –
3 | mAb 2C1.1 (antibody, human IgG2, lambda, V domains shown, fully human IgG2 lambda, Campaign 1; tested hybridoma-purified and recombinant; also called anti-hOrai1 mAb 2C1.1) VH: QVQLQQWGAGLLKPSETLSLTCAVYGGSFSGYYWSWIRQPPGKGLEWIGEIDHSGSTNYNPALKSRLTISVDTSKNQFSLKLSSVTAADTAVYYCARAGSGGYEDWFDPWGQGTLVTVSS VL: QSVLTQPPSVSGAPGQRVTISCTGSSSNIGAGYNVHWYQQFPRTDPKLLIYVYNIRPSGVPDRFSGSRSGTSASLAITGLQTEDEADYYCQSYDSSLSGVVFGGGTKLTVLG | 4.4 nM | 1.8 nM | 40 to 100% | 40 to 100% | 1.62 nM | 1.61 nM | 0.57 nM | 0.34 nM | < 1% | < 1% | < 1% | < 1% | < 1% | < 1% | binds | binds | – | – | – | – | IC50 of ICRAC current block, whole-cell patch clamp, HEK-293/hOrai1/hSTIM1 BB6.3 [1]: 55.9 nM
4 | mAb 5F7.1 (antibody, human IgG2, lambda, fully human IgG2 lambda, Campaign 2) heavy: QVQLVQSGAEVKKPGASVKVPCKASGYTFTDYYINWVRQAPGQGLEWMGWINPNNGGTNYAQKFQGRVTMTRDTSISTAYMELRRLRSDDTAVYYCARERGGYEDWFDPWGQGTLVTVSSASTKGPSVFPLAPCSRSTSESTAALGCLVKDYFPEPVTVSWNSGALTSGVHTFPAVLQSSGLYSLSSVVTVPSSNFGTQTYTCNVDHKPSNTKVDKTVERKCCVECPPCPAPPVAGPSVFLFPPKPKDTLMISRTPEVTCVVVDVSHEDPEVQFNWYVDGVEVHNAKTKPREEQFNSTFRVVSVLTVVHQDWLNGKEYKCKVSNKGLPAPIEKTISKTKGQPREPQVYTLPPSREEMTKNQVSLTCLVKGFYPSDIAVEWESNGQPENNYKTTPPMLDSDGSFFLYSKLTVDKSRWQQGNVFSCSVMHEALHNHYTQKSLSLSPGK light: QSVLTQPPSVSGAPGQRVTISCTGSSSNIGAGFDVHWYQQLPVTAPKLLIYGNRNRPSGVPARFSGSKSGTSASLAITGLQAEDEAVYYCQSYDSSLTVFGGGTKLTVLGQPKANPTVTLFPPSSEELQANKATLVCLISDFYPGAVTVAWKADGSPVKAGVETTKPSKQSNNKYAASSYLSLTPEQWKSHRSYSCQVTHEGSTVEKTVAPTECS | – | – | – | – | – | – | – | – | – | – | – | – | – | – | – | – | 0.28 nM | 10.7 nM | 1.32 nM | 2.52 nM | –
5 | mAb 5A4.2 (antibody, human IgG2, lambda, V domains shown, fully human IgG2 lambda, Campaign 2) VH: QVQLVQSGAEVKKPGASVKVSCKASGYTFTDYYMNWVRQAPGQGLEWMGWINPNSGGTKYAQKFQGRVTMTRDTSIRTAYMELSRLRSDDTAVYYCSREYGGNSDWFDPWGQGTLVTVSS VL: QSVLTQPPSVSGAPGQRVTISCTGSSSNIGAGYDVHWYQQLPGTAPKLLIYGNSNRPSGVPDRFSGSKSGTSASLAITGLQAEDEADYYCQSYDNRLSDSVVIGGGTKLTVQG | – | – | – | – | – | – | – | – | – | – | – | – | – | – | – | – | 0.59 nM | 3.59 nM | 1.42 nM | 0.87 nM | –
6 | mAb 5F2.1 (antibody, human IgG2, lambda, V domains shown, fully human IgG2 lambda, Campaign 2) VH: QVQLVQSGAEVKKPGASVKVSCKASGYTFTDYYMNWVRQAPGQGLEWMGWINPNSGGTHYAQKFQGRVTMTRDTSISTAYMELSRLRSDDTAVYYCAREYGGYSDWFDPWGQGTLVTVSS VL: QSVLTQPPSVSGAPGQRVTISCTGSRSNIGAGYDVHWYQQLPRTAPKLLIYDNSNRPSGVPDRFSGSKSGSSASLAITGLQAEDEADYYCQSYDNSLSDSVLIGGGTKLTVLG | – | – | – | – | – | – | – | – | – | – | – | – | – | – | – | – | 11.1 nM | 9.84 nM | 2.42 nM | 2.43 nM | –
